For two molecules, binding result and EC50 results are on record in patent US20260125455A1 (CLEVELAND CLINIC FOUNDATION, published 2026).

In experiment [1] the target is human complement protein C5 (human, UniProt P01031 19-673; P01031 678-1676). Description: ELISA, C5-coated wells. As for the experimental part:
The 20 purified antibodies were tested by ELISA for their abilities to bind human complement proteins C5, C5b6 and C6. The antibodies were divided into two sets for this analysis. MoC601 HuG4K and HuG4K isotype controls were included alongside each set, as was C601HFKC4 HuG4K (aka 3713) expression supernatant from the original transfection as an additional positive control. In addition, three humanized antibodies (C601HFKC4 HuG4K, C601HPKI HuG4K and C601HPKC4 HuG4K) were included within both sets to allow better comparison between the plates. The antibodies all show specificity for C6 with no detectable binding to C5. All humanized antibodies bind to C6 and to C6 as part of the C5b6 complex. The lower plateaus of the C5b6 complex binding curves are explained by less C6 protein being available for binding when wells are coated with C5b6 complex as opposed to C6 alone. […] The EC₅₀ values are included in the figure but slightly different plateau levels observed for the antibodies are influencing the apparent EC₅₀ values. However, it was noted that the EC₅₀ values tended to be lower on the plates for the second set of antibodies. For this reason, a subset of the 20 antibodies was tested in a further ELISA for binding to C6 and C5b6 complex.
Binding ELISAs used Nunc Maxisorp 384-well plates, wells coated with C6, C5b,6 complex or C5 (Complement Technology Inc, TX) and goat anti-human IgG (Fab specific) peroxidase secondary antibodies (Sigma-Aldrich, A0293) for detection. For the thermal stability assay, IgG supernatants were diluted to their EC₈₀ concentration, incubated at different temperatures for 10 min and C6 binding measured by ELISA with the binding signal plotted against temperature. Kinetics of C6 binding were measured by capturing antibodies from supernatant samples using Protein G biosensors and performing a 20 min association step with 2.5 nM C6 and a 20 min dissociation step using the Octet RED96. Precise kinetic measurements were obtained by surface plasmon resonance (Biacore 8K, Cytiva). The IgG were captured on a protein G sensor chip. Binding of C6 measured using a three-fold concentration series of C6 from 0.03 nM-25 nM and data were fitted using a 1:1 model in two independent experiments.
On the technique in general: In an ELISA, binding on a coated surface is turned into a signal by an enzyme label.

Experiment [2] has as its target T1, human complement protein C6 (human, UniProt P13671 22-934).
T1 construct: also called human C6; C6 antigen
In words: C6-binding ELISA, A650 nm; sample 'C6-depleted human serum' (28 days at 37 C). As for the experimental part: For the serum stability assessment, samples of the purified candidate antibodies are normally incubated in mouse, human and cynomolgus serum at 37 C for 28 days and then tested in an antigen-binding ELISA. Since the anti-C6 antibodies are expected to bind to both human and cynomolgus C6 but not mouse C6, we anticipated that incubating in human or cynomolgus sera would reduce ELISA binding due to occupation of the antibody binding sites by C6 protein from the sera. Therefore, the chimeric and humanized antibodies were tested with human and mouse sera and with human sera from which the C6 protein has been depleted. The C6-binding ELISA was then used to compare the binding abilities of the C601 antibodies that had been incubated in the 3 different sera to antibody samples that were incubated in PBS at 37 C or kept at 4 C (non-incubated).
The Uncle instrument (Unchained Labs) was used to monitor unfolding via intrinsic fluorescence and aggregation by static light scattering across a temperature gradient to obtain melting temperatures (Tₘ). […] Isoelectric points were determined by capillary isoelectric focusing using a PA800+ (Beckman Coulter). […]

For experiment [3], the target named is T1, human complement protein C6. Description: ELISA, purified protein, anti-human IgG (Fab-specific) detection. As to the method:
The binding of the purified chimeric molecules, MoC601 HuG4K and MoC601 HuG1KFab, was also confirmed by ELISA, where the anti-human IgG (Fab-specific) secondary reagent was used. The control mouse antibody bound as previously (EC₅₀ 0.11 nM). The EC₅₀ for purified MoC601 HuG4K (0.27 nM) was similar to that obtained for the MoC601 HuG4K supernatant sample above. […] The EC₅₀ value for the Fab molecule (0.48 nM) was higher than for the antibody, which would be expected since the Fab is unable to bind bivalently to the antigen on the well. A C6-binding assay was also set up on the Octet RED384 instrument. […] However, MoC601 MoG1K could be stably loaded onto anti-mouse Fc (AMC) biosensors. Concentrations of the mouse and chimeric antibodies were adjusted to give similar levels of loading on to the AMC and […]

T1 sequence (P13671 22-934 limits assumed): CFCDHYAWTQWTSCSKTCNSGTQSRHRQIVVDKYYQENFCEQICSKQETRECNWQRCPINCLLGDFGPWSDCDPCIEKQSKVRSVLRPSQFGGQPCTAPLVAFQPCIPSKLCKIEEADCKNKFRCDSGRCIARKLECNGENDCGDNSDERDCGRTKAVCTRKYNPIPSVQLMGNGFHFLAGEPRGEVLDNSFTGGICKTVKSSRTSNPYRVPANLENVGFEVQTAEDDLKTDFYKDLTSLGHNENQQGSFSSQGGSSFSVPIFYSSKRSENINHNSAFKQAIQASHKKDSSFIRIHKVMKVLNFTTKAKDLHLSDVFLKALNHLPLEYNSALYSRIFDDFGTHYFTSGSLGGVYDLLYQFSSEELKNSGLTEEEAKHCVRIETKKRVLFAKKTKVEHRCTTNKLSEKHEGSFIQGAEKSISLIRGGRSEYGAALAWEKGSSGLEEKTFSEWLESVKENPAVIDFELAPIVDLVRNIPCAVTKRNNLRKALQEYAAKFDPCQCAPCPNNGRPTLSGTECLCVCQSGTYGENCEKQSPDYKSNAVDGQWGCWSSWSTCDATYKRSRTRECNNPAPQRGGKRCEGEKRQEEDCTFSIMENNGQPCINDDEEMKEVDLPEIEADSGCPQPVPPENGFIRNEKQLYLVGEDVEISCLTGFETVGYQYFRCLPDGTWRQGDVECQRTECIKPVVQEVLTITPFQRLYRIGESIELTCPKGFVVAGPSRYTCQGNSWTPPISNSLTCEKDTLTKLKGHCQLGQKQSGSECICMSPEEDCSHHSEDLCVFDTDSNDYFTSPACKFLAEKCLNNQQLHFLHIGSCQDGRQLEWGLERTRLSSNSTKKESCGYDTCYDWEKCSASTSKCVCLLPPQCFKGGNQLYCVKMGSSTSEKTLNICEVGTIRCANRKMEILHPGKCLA
Chain of human complement protein C5 (P01031 19-673 limits assumed, chain 1 of 2): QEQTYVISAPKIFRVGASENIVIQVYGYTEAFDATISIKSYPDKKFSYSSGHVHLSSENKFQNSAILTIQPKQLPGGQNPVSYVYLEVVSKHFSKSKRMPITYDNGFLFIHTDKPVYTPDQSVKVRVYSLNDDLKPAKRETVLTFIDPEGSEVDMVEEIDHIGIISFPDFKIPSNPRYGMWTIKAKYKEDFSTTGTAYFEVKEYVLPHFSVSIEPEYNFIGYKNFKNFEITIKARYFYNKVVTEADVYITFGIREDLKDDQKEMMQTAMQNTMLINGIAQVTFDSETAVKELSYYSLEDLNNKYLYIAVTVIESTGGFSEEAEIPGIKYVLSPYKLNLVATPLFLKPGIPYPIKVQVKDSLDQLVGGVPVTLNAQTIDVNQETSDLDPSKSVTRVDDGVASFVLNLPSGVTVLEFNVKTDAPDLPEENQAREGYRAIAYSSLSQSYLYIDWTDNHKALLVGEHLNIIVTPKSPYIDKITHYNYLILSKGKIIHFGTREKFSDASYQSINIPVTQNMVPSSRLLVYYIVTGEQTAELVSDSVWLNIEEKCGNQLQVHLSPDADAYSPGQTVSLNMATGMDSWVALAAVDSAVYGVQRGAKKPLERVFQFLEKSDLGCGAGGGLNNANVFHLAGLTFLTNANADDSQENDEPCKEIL
Chain of human complement protein C5 (P01031 678-1676 limits assumed, chain 2 of 2): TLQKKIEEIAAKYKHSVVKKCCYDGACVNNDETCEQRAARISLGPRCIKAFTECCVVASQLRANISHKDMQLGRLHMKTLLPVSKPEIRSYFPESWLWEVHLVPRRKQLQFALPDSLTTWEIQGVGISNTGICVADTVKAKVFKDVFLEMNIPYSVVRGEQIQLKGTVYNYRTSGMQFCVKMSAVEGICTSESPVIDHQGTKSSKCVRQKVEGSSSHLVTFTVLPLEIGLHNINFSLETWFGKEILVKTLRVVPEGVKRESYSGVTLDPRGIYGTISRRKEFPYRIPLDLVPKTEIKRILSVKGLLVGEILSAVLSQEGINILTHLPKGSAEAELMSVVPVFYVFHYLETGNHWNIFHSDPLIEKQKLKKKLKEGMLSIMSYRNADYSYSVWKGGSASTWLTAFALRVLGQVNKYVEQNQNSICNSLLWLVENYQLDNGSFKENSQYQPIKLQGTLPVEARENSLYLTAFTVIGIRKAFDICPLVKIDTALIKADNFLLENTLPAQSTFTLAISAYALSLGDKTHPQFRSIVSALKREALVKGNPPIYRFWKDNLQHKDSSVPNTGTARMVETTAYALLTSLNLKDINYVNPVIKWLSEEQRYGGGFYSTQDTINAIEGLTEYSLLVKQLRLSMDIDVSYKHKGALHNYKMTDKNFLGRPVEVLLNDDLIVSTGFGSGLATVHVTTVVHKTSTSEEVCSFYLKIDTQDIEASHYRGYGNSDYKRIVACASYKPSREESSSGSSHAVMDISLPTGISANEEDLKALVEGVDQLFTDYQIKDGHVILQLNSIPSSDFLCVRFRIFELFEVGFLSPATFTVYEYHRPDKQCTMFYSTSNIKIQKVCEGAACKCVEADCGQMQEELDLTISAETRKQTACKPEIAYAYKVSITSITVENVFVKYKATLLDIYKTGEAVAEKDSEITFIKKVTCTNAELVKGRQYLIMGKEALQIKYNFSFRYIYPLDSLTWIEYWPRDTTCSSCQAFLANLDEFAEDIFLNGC

B1: C601HFKC4 HuG4K (antibody, human IgG4 S228P, kappa)
heavy: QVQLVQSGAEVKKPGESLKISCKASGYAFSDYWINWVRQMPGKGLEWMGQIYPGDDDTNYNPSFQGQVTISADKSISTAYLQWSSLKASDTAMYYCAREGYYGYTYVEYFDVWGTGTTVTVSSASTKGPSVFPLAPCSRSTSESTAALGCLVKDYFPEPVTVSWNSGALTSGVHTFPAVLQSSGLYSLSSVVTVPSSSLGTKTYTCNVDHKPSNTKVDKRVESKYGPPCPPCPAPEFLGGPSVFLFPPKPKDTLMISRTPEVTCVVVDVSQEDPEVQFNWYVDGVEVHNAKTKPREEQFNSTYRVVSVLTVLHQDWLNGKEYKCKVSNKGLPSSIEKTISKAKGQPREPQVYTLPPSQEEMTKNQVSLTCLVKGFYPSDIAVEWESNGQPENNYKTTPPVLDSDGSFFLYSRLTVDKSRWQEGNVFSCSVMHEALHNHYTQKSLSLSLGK
light: QIVLTQSPATLSLSPGERATLSCRASSSVSYLHWYQQKPGQSPRLWIYDTSKRATGIPARFSGSGSGTDYTLTISSLEPEDFAVYYCQQWTSNPLTFGQGTKLEIKRTVAAPSVFIFPPSDEQLKSGTASVVCLLNNFYPREAKVQWKVDNALQSGNSQESVTEQDSKDSTYSLSSTLTLSKADYEKHKVYACEVTHQGLSSPVTKSFNRGEC
notes: also called 3713; clone 3713
In general, EC50 refers to the midpoint of the concentration-response curve. A higher EC50 goes with a less potent agent. B1: the binding result in experiment [1] is reported as “no binding”. Also, the EC50 in experiment [2] was 0.17 nM.

B2: MoC601 HuG4K (chimeric C601 antibody) (antibody, human IgG4 S228P, kappa, V domains shown)
VH: QVQLQQSGAELVKPGASVKISCKASGYAFSDYWMNWVKQRPGKGLEWIGQIYPGDDDTNYNGKFKGKATLTADKSSSTAYMQLSSLTSEDSAVYFCAREGYYGYTYVEYFDVWGTGTTVTVSS
VL: QIVLTQSPAIMSVSPGEKVTLTCSASSSVSYMHWYQQKSGTSPKRWIYDTSKLASGVPARFSGSGSGTSYSLTISSMEAEDAATYYCQQWTSNPLTFGAGTKLELRR
notes: also called chimeric antibody; chimeric 1C9
Molecule B2 came in with an EC50 in experiment [3] of 0.27 nM.
